From the supplement of paper PMC9112550, “Optimization of the antimicrobial peptide Bac7 by deep mutational scanning” (BMC Biology, 2022) come the findings set out here.
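Further: peptides expressed intracellularly from a pBAD plasmid library in pooled LB shake-flask culture, induced with 0.3% L-arabinose, DNA abundance read by NGS, three biological replicates, DESeq2 with apeglm shrinkage.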

This data set has as its system Escherichia coli TOP10. Nature of the data set: shrunken log2 fold change of peptide-encoding DNA abundance (4.5 h post-induction vs induction); higher = less antimicrobial activity (less host growth inhibition). As to conditions: time post-induction: 4.5 h; library: site-saturation at positions 5, 18, 19, 20.
With RRIRDRPPRLPRPRPRPQGNPRP, the “shrunken log2 fold change” value is -0.0306. Turning to RRIRCRPPRLPRPRPRPNWLPRP, the “shrunken log2 fold change” value is -0.115. Take RRIRYRPPRLPRPRPRPTKYPRP: the “shrunken log2 fold change” value is -0.836.

Turning to RRIRVRPPRLPRPRPRPSMWPRP, the “shrunken log2 fold change” value is -0.104. As for RRIRYRPPRLPRPRPRPEMRPRP, the “shrunken log2 fold change” value is 0.0856. In the case of RRIRFRPPRLPRPRPRPRRGPRP, the “shrunken log2 fold change” value was 0.435. Then RRIRTRPPRLPRPRPRPFFDPRP, with -0.429.

Regarding RRIRGRPPRLPRPRPRPGIVPRP, the “shrunken log2 fold change” value turned out to be 0.957. Then RRIRPRPPRLPRPRPRPFREPRP, with 0.261; and RRIRRRPPRLPRPRPRPKIHPRP, with 0.02. Take RRIRRRPPRLPRPRPRPMRRPRP: the “shrunken log2 fold change” value amounted to 0.425.

Consider RRIRVRPPRLPRPRPRPCQNPRP, for which the “shrunken log2 fold change” value is -0.293. Take RRIRCRPPRLPRPRPRPWMYPRP: the “shrunken log2 fold change” value was -0.0169. Turning to RRIRPRPPRLPRPRPRPPVAPRP, the “shrunken log2 fold change” value was determined as 0.366.

As for RRIRARPPRLPRPRPRPISRPRP, the “shrunken log2 fold change” value amounted to 0.354.

Turning to RRIRQRPPRLPRPRPRPHREPRP, the “shrunken log2 fold change” value was -0.152. In the case of RRIRERPPRLPRPRPRPTYHPRP, the “shrunken log2 fold change” value was -0.407. Then RRIRHRPPRLPRPRPRPCLTPRP, with -0.0273; and RRIRDRPPRLPRPRPRPGYNPRP, with -0.0937; and RRIRARPPRLPRPRPRPAENPRP, with 0.865. For the sequence RRIRLRPPRLPRPRPRPPSSPRP, the “shrunken log2 fold change” value turned out to be 1.86. On to RRIRSRPPRLPRPRPRPNWMPRP, for which the “shrunken log2 fold change” value was -0.0249. Then RRIRYRPPRLPRPRPRPYRNPRP, with -0.0228. With RRIRVRPPRLPRPRPRPEVEPRP, the “shrunken log2 fold change” value was -0.0626. Then RRIRQRPPRLPRPRPRPTHKPRP, with 0.0649; and RRIRSRPPRLPRPRPRPENCPRP, with 0.00362. As to RRIRARPPRLPRPRPRPMNRPRP, the “shrunken log2 fold change” value was -0.107. Then RRIRFRPPRLPRPRPRPLSFPRP, with 0.675; and RRIRDRPPRLPRPRPRPACAPRP, with 0.705; and RRIRHRPPRLPRPRPRPVMIPRP, with -0.0805. Turning to RRIRHRPPRLPRPRPRPLAPPRP, the “shrunken log2 fold change” value is 0.196.

Consider RRIRRRPPRLPRPRPRPITPPRP, for which the “shrunken log2 fold change” value turned out to be 0.243.

In the case of RRIRLRPPRLPRPRPRPAWAPRP, the “shrunken log2 fold change” value stood at 0.232.

For the sequence RRIRGRPPRLPRPRPRPHWGPRP, the “shrunken log2 fold change” value was found to be 0.247. Regarding RRIRTRPPRLPRPRPRPIRFPRP, the “shrunken log2 fold change” value is -0.0183.

In the case of RRIRNRPPRLPRPRPRPYFNPRP, the “shrunken log2 fold change” value was -1.51. Then RRIRIRPPRLPRPRPRPLSSPRP, with -0.143; and RRIRVRPPRLPRPRPRPGHRPRP, with -0.0978. Then RRIRQRPPRLPRPRPRPYLSPRP, with 0.00493; and RRIRTRPPRLPRPRPRPPDVPRP, with 0.176; and RRIRARPPRLPRPRPRPSRVPRP, with 2.84.

In the case of RRIRRRPPRLPRPRPRPMCMPRP, the “shrunken log2 fold change” value was -0.0115. As for RRIRVRPPRLPRPRPRPDGDPRP, the “shrunken log2 fold change” value is -0.339.

RRIRIRPPRLPRPRPRPIFIPRP: the “shrunken log2 fold change” value is -0.317. With RRIRWRPPRLPRPRPRPGTLPRP the figure was -0.0473; with RRIRCRPPRLPRPRPRPAYPPRP, -0.149. RRIRTRPPRLPRPRPRPMAKPRP: the “shrunken log2 fold change” value amounted to 0.0153.

Turning to RRIRVRPPRLPRPRPRPKYVPRP, the “shrunken log2 fold change” value was -0.163.

With RRIRMRPPRLPRPRPRPSVTPRP, the “shrunken log2 fold change” value turned out to be 0.703.

With RRIRERPPRLPRPRPRPYHMPRP, the “shrunken log2 fold change” value was -0.021.
